B1: CPEB3 Ribozyme (parent)
chain: UAACAGGGGGCCACAGCAGAAGCGUUCACGUCGCAGCCCCUGUCAGAUUCUGGUGAAUCUGCGAAUUCUGCUGUAUAUCUC

Variants of: B1
Assay: self-cleavage, relative activity (ratio to wild type); higher = more cleavage; in vitro, sequencing
Procedure, shortened: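 For each CPEB3 ribozyme variant, relative activity is its cleaved/total read fraction divided by the unmutated ribozyme's. Barcoded error-prone PCR libraries were transcribed by T7 RNA polymerase (5 hours, 37°C) and held in DNase I for 15 min before an EDTA stop, with cleavage occurring throughout. Template-switching reverse transcription and Illumina sequencing were used to read the RNAs. A 5-read minimum applied, and results are the mean of three batches.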

Question: Which self-cleavage does the source give for G10U U78C here?
Answer: 0.39

Question: Which self-cleavage does the source give for G10U G33U here?
Answer: 0.1

Question: With G10U G33A as the variant, how does the self-cleavage read?
Answer: 0.23

Question: With G10A C71A as the variant, how does the self-cleavage read?
Answer: 0.11

Question: Which self-cleavage does the source give for G10A C71G here?
Answer: 0.12

Question: Which self-cleavage does the source give for G10A C71U here?
Answer: 0.08

Question: With G10C C71A as the variant, how does the self-cleavage read?
Answer: 0.12

Question: With G10C G53A as the variant, how does the self-cleavage read?
Answer: 0.26

Question: Which self-cleavage does the source give for G10A A20C here?
Answer: 0.22

Question: Which self-cleavage does the source give for G10A A20G here?
Answer: 0.3

Question: With G10A A20U as the variant, how does the self-cleavage read?
Answer: 0.23

Question: For G9U G55A, which self-cleavage is on record?
Answer: 0.41

Question: Which self-cleavage does the source give for G9U U76A here?
Answer: 0.39

Question: Which self-cleavage does the source give for G9U U76C here?
Answer: 0.13

Question: Which self-cleavage does the source give for G9U G63A here?
Answer: 0.08

Question: For C11A U25C, which self-cleavage is on record?
Answer: 0.25

Question: For C11A U25A, which self-cleavage is on record?
Answer: 0.45

Question: With G10A A21G as the variant, how does the self-cleavage read?
Answer: 0.24

Question: Which self-cleavage does the source give for G10A A21U here?
Answer: 0.13

Question: With G10A A21C as the variant, how does the self-cleavage read?
Answer: 0.15

Question: Which self-cleavage does the source give for G9U U51C here?
Answer: 0.17

Question: With G9U U51A as the variant, how does the self-cleavage read?
Answer: 0.14

Question: For G10U A47G, which self-cleavage is on record?
Answer: 0.21

Question: For G9U C62U, which self-cleavage is on record?
Answer: 0.13

Question: For G10A A15G, which self-cleavage is on record?
Answer: 0.24

Question: Which self-cleavage does the source give for G10A A15U here?
Answer: 0.2

Question: With G10U G52U as the variant, how does the self-cleavage read?
Answer: 0.09

Question: Which self-cleavage does the source give for G10A C29U here?
Answer: 0.13

Question: Which self-cleavage does the source give for G9U G70A here?
Answer: 0.1

Question: With G10C A35G as the variant, how does the self-cleavage read?
Answer: 0.28

Question: For G9U U78C, which self-cleavage is on record?
Answer: 0.2

Question: With G9U U78A as the variant, how does the self-cleavage read?
Answer: 0.27

Question: With G10C A64G as the variant, how does the self-cleavage read?
Answer: 0.25

Question: Which self-cleavage does the source give for G10C A64U here?
Answer: 0.15

Question: Which self-cleavage does the source give for G10C G16A here?
Answer: 0.12

Question: Which self-cleavage does the source give for G10U U72C here?
Answer: 0.22

Question: For G9U U49C, which self-cleavage is on record?
Answer: 0.11

Question: For G9U U49A, which self-cleavage is on record?
Answer: 0.41

Question: With G10A G42U as the variant, how does the self-cleavage read?
Answer: 0.38

Question: Which self-cleavage does the source give for G10A G42C here?
Answer: 0.16

Question: With G9U C81U as the variant, how does the self-cleavage read?
Answer: 0.27

Question: With G10A C38U as the variant, how does the self-cleavage read?
Answer: 0.08

Question: With G10A C32U as the variant, how does the self-cleavage read?
Answer: 0.19

Question: Which self-cleavage does the source give for G10A C32A here?
Answer: 0.06

Question: With G10A C40A as the variant, how does the self-cleavage read?
Answer: 0.19

Question: For G10A C40U, which self-cleavage is on record?
Answer: 0.15

Question: With C11A A56U as the variant, how does the self-cleavage read?
Answer: 0.12

Question: With C11A A56G as the variant, how does the self-cleavage read?
Answer: 0.34

Question: For G10U C50U, which self-cleavage is on record?
Answer: 0.17

Question: For G10C A47U, which self-cleavage is on record?
Answer: 0.15

Question: For G10A G53C, which self-cleavage is on record?
Answer: 0.33

Question: With G10A G53A as the variant, how does the self-cleavage read?
Answer: 0.29

Question: For G10C U51C, which self-cleavage is on record?
Answer: 0.22

Question: For G10C C44U, which self-cleavage is on record?
Answer: 0.18

Question: Which self-cleavage does the source give for G10C U25C here?
Answer: 0.07

Question: Which self-cleavage does the source give for G10C U76C here?
Answer: 0.19

Question: With G10A U54G as the variant, how does the self-cleavage read?
Answer: 0.16

Question: Which self-cleavage does the source give for G10A U54C here?
Answer: 0.19

Question: Which self-cleavage does the source give for G10A U54A here?
Answer: 0.35

Question: For G10U U66A, which self-cleavage is on record?
Answer: 0.18

Question: With G10C U26G as the variant, how does the self-cleavage read?
Answer: 0.39

Question: Which self-cleavage does the source give for G10C U26C here?
Answer: 0.21

Question: With G10C A57G as the variant, how does the self-cleavage read?
Answer: 0.21

Question: Which self-cleavage does the source give for G9U G53U here?
Answer: 0.36

Question: With G9U U31C as the variant, how does the self-cleavage read?
Answer: 0.13

Question: Which self-cleavage does the source give for G9U U31G here?
Answer: 0.06

Question: Which self-cleavage does the source give for G10C U74A here?
Answer: 0.26

Question: With G10C U74G as the variant, how does the self-cleavage read?
Answer: 0.26

Question: For C11A U49G, which self-cleavage is on record?
Answer: 0.3

Question: With C11A U49A as the variant, how does the self-cleavage read?
Answer: 0.11

Question: For G10U A20G, which self-cleavage is on record?
Answer: 0.36

Question: With G10U U80C as the variant, how does the self-cleavage read?
Answer: 0.23

Question: With G10A U48C as the variant, how does the self-cleavage read?
Answer: 0.2

Question: With G10A U51A as the variant, how does the self-cleavage read?
Answer: 0.33

Question: With G10A U51C as the variant, how does the self-cleavage read?
Answer: 0.24

Question: For C11A C23G, which self-cleavage is on record?
Answer: 0.13

Question: For C11A C23U, which self-cleavage is on record?
Answer: 0.06

Question: Which self-cleavage does the source give for G10C A15G here?
Answer: 0.08

Question: Which self-cleavage does the source give for G10C A15U here?
Answer: 0.08

Question: Which self-cleavage does the source give for G10C G52A here?
Answer: 0.2

Question: With G10C C12A as the variant, how does the self-cleavage read?
Answer: 0.44

Question: Which self-cleavage does the source give for G10C C12U here?
Answer: 0.1

Question: For G10U C38G, which self-cleavage is on record?
Answer: 0.17

Question: Which self-cleavage does the source give for G9U G52U here?
Answer: 0.18

Source: the RNAGym collection of RNA variant scans (doi:10.1093/nar/gkz1192)
